The series concerns the molecule itself. Put plainly: cross-linking; interprotein disulfide formed in transfected HEK-293 cells (vehicle, NCA 100 µmol/L 30 min or AS 500 µmol/L 15 min); homogenates in non-reducing Laemmli buffer with 100 mmol/L maleimide, SDS-PAGE, western blot for PKGIα; 150 kDa band lost with 2-mercaptoethanol. Background: A western blot detects proteins with antibodies after separation by electrophoresis.

B1: cGMP-dependent protein kinase I-alpha (PKGIα), human, wildtype (enzyme, UniProt Q13976 1-671, looked up)
chain: MSELEEDFAKILMLKEERIKELEKRLSEKEEEIQELKRKLHKCQSVLPVPSTHIGPRTTRAQGISAEPQTYRSFHDLRQAFRKFTKSERSKDLIKEAILDNDFMKNLELSQIQEIVDCMYPVEYGKDSCIIKEGDVGSLVYVMEDGKVEVTKEGVKLCTMGPGKVFGELAILYNCTRTATVKTLVNVKLWAIDRQCFQTIMMRTGLIKHTEYMEFLKSVPTFQSLPEEILSKLADVLEETHYENGEYIIRQGARGDTFFIISKGTVNVTREDSPSEDPVFLRTLGKGDWFGEKALQGEDVRTANVIAAEAVTCLVIDRDSFKHLIGGLDDVSNKAYEDAEAKAKYEAEAAFFANLKLSDFNIIDTLGVGGFGRVELVQLKSEESKTFAMKILKKRHIVDTRQQEHIRSEKQIMQGAHSDFIVRLYRTFKDSKYLYMLMEACLGGELWTILRDRGSFEDSTTRFYTACVVEAFAYLHSKGIIYRDLKPENLILDHRGYAKLVDFGFAKKIGFGKKTWTFCGTPEYVAPEIILNKGHDISADYWSLGILMYELLTGSPPFSGPDPMKTYNIILRGIDMIEFPKKIAKNAANLIKKLCRDNPSERLGNLKNGVKDIQKHKWFEGFNWEGLRKGTLTPPIIPSVASPTDTSNFDSFPEDNDEPPPDDNSGWDIDF
modifications: interprotein disulfide at Cys42 (between the two subunits); intradisulfide Cys117-Cys195 after HNO donors
notes: written here as one chain because the row is of the protein with itself; also called WT PKGIα; PKGIα WT; source: HEK-293, transfected (pcDNA3), in cell homogenate
In general, stoichiometry N refers to a count of units in the complex or per binding partner. For B1, the “stoichiometry N” value was found to be 2.

Values taken from paper PMC5577323, “Oxidant sensor in the cGMP-binding pocket of PKGIα regulates nitroxyl-mediated kinase activity” (Scientific Reports, 2017).
